Test results reported in US20230189818A1, “RNA-BASED CONTROL OF BOTRYTIS” (priority 2021, published 2023).

What was measured:
[1] = test system: Botrytis cinerea B05.10 isolate; test: Greenhouse whole plant assay (tomato 'Lanai', disease severity); assay type: in vivo; conditions: 25 g ai/ha; final rating day (rating #3); three runs; four-week-old 'Lanai' tomato plant
Protocol: Plant Tissue: Tomato seedlings, variety “Lanai”, were seeded then thinned to one plant per pot in an 18 cell tray. […] Plants were grown at a 23° C./17° C. day/night temperature with 10 hours of light each 24-hour period. The RH was ambient and plants were fertilized two times a day every day except for Sunday when they received only water. Plants were grown using Fafard brand medium (70-80% sphagnum peat moss, perlite, vermiculite, dolomite limestone and watering agent) for the entire experiment.
Fungal culture. A Botrytis cinerea B05.10 isolate was maintained, and spores were harvested as previously described for detached leaf assays, except a grape juice additive was not used for inoculum preparation.
Treatment of plants. Whole tomato plants were treated ˜24 hours before inoculation using the spray booth. A 0.07% Silwet L-77 solution was used as a spreader and added for a 0.07% final volume in water (Silwet L-77 brand Phyto Technology Laboratories, S7777 Lot #14D7777001 F). The spray booth deck was set to 20″ above the plant canopy and a twinjet 8002EVS nozzle with 100 mesh filter placed into the spray mechanism. The spray boom was calibrated before treatment application with specs as follows: 50 GPA rate, 1.25 MPH speed, 6′ spray length, single pass, and at 45 psi to get a catch of 133 mL in 10 seconds (+/−6 mL). Each treatment was replicated ten times for each experimental run.
Inoculation. Plants were inoculated using a mist-o-matic applicator, which is pressurized by manual pumping. The inoculum suspension was poured into the mist-o-matic immediately before inoculation in the GH space. The containers were only filled half-way and inoculum was applied evenly to the surface of all foliage with even coverage.
Incubation. Plants were incubated inside of a 40″ tall humidity chamber supported by PVC pipe and covered in 3M translucent plastic. A humidifier was inside the chamber and set to low and continuous humidity (filled with tap water). The temperature was D:24-20° C./N:20-18° C. with 15 hours of light, of which 9 hours was with supplemental lighting. RH was ambient and watering occurred everyday by sub-irrigation with the bench being flooded for 10 minutes before draining.
Rating. Tomato plants were rated three times during the two-week experiment with rating starting four days post-inoculation and occurring every three to four days after the initial rating date. Plants were rated for the number of lesions and disease severity, which is the percentage of the plant that was symptomatic including necrotic lesions, pathogen sporulation, and chlorosis.
Data analysis. […] Percent disease severity (%DS) was determined by the percent area of the tomato foliage with symptoms including lesions, chlorosis, necrosis, and wilting. Disease severity was rated at three dates (Rating #) over the 12-day test period. Treatments were compared to the untreated, inoculated control and a chemical standard. Statistical analysis was done using SAS JMP version 13.2.1 with treatments compared to the untreated, inoculated control and a chemical standard using Tukey-Kramer and student's T tests.

[2] = test system: Botrytis cinerea isolate (B05.10); test: Detached leaf assay (tomato leaflets, lesion size); assay type: in vivo; conditions: five days post inoculation, vs untreated inoculated control
Protocol: Plant tissue. Tomato plants, variety Brandywine, were grown in the greenhouse for 3 weeks before harvesting the first true leaves for assays. Nodes 2-4 were prioritized for harvest and only lateral leaflets were used for assays. Leaflets of approximately the same size were used each week and were randomized among treatments. Detached leaflets were immediately brought into the lab for treatment and used within 4 hours of harvest. Detached leaflets were kept at 4° C. until they were treated and placed onto a 1% water agar medium for incubation.
Fungal culture. A Botrytis cinerea isolate (B05.10) was preserved on silica for long-term storage and pulled from these tubes stored at 4° C. for growth on a nutritive medium. Three pellets of silica were added to the center of a Malt Extract Agar (MEA) agar plate and grown at room temperature without parafilm/tape seal for ˜14 days, or until abundant conidia formation, before use.
Treatment of leaflets. Leaflets were treated 24 hours before inoculation and applied using an atomizer to get a fine mist of small droplets entirely covering the leaflet. Silwet L-77 was used as a spreader and added for a 0.03% final concentration (Silwet L-77 brand Phyto Technology Laboratories, S7777 Lot #14D7777001 F). The inoculated control was sprayed with the same volume of sterile DI water with Silwet L-77 in the absence of fungicide or experimental material. Leaflets were spray treated by laying them on a paper towel and holding the atomizer ˜6″ away from the leaflet for applications. Treated leaves were placed on a 1% water agar (10 g Bacto Agar, Difco, in 1 L deionized water, sterilized for 30 minutes at 121° C. and poured when reached a temp of 55° C. into 100×20 mm Petri dishes), with lids of the Petri dishes placed back on before putting Petri dishes under plastic bags to maintain humidity before inoculation the following day. Petri dishes of treated leaflets were left on the lab counter until the following day. Each treatment was replicated ten times with each replicate being a single treated leaflet with two inoculation sites, one on each side of the leaf midvein.
Inoculation. The conidial suspension was prepared by pouring a 7% white grape juice solution onto the culture plate, then scraping the plate with a sterile spatula to dislodge the spores and mycelia. The grape juice solution was prepared by mixing Welch's brand organic white grape juice into sterile deionized water. After dislodging the spores and mycelia of the culture, the suspension was poured through two layers of cheesecloth to remove fungal mycelia and catch the conidial suspension in a clean 50 mL conical tube. Approximately 3 uL of TWEEN 20 was added to conidial suspension to prevent sticking to conical tube. The spore concentration was determined using a Neubauer Improved hemocytometer and inoculum was diluted with more 7% grape juice until a spore concentration of 1×10^5 conidia/mL was reached. Inoculum was used to inoculate host tissue within 2 hours of preparation. Each tomato leaflet was inoculated twice, with inoculation sites placed one per side of the leaflet midvein. A 10 μL volume of spore suspension was placed at each inoculation site using a repeater pipette. Special care was taken not to touch the tip to leaflet surface to avoid contamination between treatments.
Incubation. Petri dishes were placed on lunch trays 6 plates high and moved to an incubator. The incubator was humidity controlled and holds at ˜75% relative humidity. The incubator was kept on 12/12 light/dark days and is set to a temperature of 23° C.
Rating. Measurements were taken at five days post inoculation (DPI). Each lesion that developed was measured using electronic calipers in 2 directions perpendicular to each other to help determine lesion diameter.
Data analysis. Data was analyzed using the SAS JMP statistical program (version 13.2.1) with comparisons made to the untreated, inoculated control. […]

Botrytis cinerea conidia = test: In vitro liquid-based assay (fungal biomass, 96-well plates, Cytation 5); assay type: cell-based; conditions: co-incubated with conidia for three days, vs untreated control
Protocol: Fungal culture. The Botrytis cinerea was plated each week the culture onto Malt Extract Agar (MEA) from long-term storage on silica stored at 4° C. Three pellets of silica were added to the center of a MEA agar plate and grown at room temperature without parafilm/tape seal for 10-14 days before use; a culture 12 days old was typically used.
Spore and media preparation. A pure culture of B. cinerea was flooded with a 0.01% Triton x-100 solution and conidia scraped free with a sterile hockey stick. The suspension was transferred to two, 1.5 mL centrifuge tubes and centrifuged at 8000 rpm for two minutes. The supernatant was discarded, pelleted spores washed twice with sterile water, then resuspended in sterile water. Conidia were quantified using a hemacytometer and diluted to a final concentration of 5000 conidia/mL stock. A stock solution of 1.25× minimal media was prepared for the assay setup using the components below. Once the stock solution was made, the pH was adjusted to 6.0 using NaOH or KOH, then filter sterilized through a 0.2 um filter tower and vacuum pump and stored at 4° C. The Kao & Michayluk Vitamins (100×) is a filter sterilized stock solution. The stock contains vitamins and amino acids as described by Kao & Michayluk. After filter sterilization, 20 mg of 4-Aminobenzoic acid in 100 ml of solution was added.
Experimental setup. Screening assays were setup in 96-well plates with conidia co-incubated with treatments (controls and dsRNAs) for three days before determining fungal biomass. Each treatment was replicated eight times within a single plate. In each well consisted of 12.5 μl of conidia suspension, 25 μl of the treatment, 12.5 μl of sterile deionized water, and 200 μl of minimal media. Each plate was covered with a breath right film and placed in the percival growth chamber at 23° C. on the shaking platform set to 120 RPM with 24-hour lighting. Plates were incubated for 72 hours before determining fungal growth.
Reading assay plate. Fungal biomass was determined by reading plates with the Cytation 5 machine. The program was set to compile 8 photo slices per well under brightfield microscopy with a 2.5× lens to measure biomass.
Data analysis. Analysis will automatically run on Cytation5 to determine final biomass.
Results are shown in Table 1B representing the average reduction in biomass vs. control for tested sequences across several runs described above.

Molecule | % control [1] | Average % Reduction in Lesion Size ([2]; 30 ppm) | Average % Reduction in Lesion Size ([2]; 50 ppm) | Average % Reduction in Biomass (Botrytis cinerea conidia; 25 ppm dsRNA) | Average % Reduction in Biomass (Botrytis cinerea conidia; 150 ppm dsRNA)
GS245: dsRNA trigger targeting B. cinerea Sec18/Cdc48_2 (XM_024693092.1); trigger SEQ ID NO 13, RNA 25, reverse complement 37 (nucleic acid, listed as Botrytis cinerea) sense: UCAAGAGAGCCGAAGGUCAUAAACGGUCCUGAAGUGCUUAAUAAAUACGUUGGUCAAUCCGAAGAAAAUAUCCGAAAGCUUUUUGCCGAUGCCGAAAAGGAGUACAAGGAAAAGGGAGACGAGAGUGGUCUUCAUAUCAUCAUUUUCGACGAAUUGGAUGCCGUUUGCAAACAAAGAGGAAGUGGAUCAGGUGGCGGAACUGGUGUUGGCGACAGUGUGGUCAAUCAACUGUUGUCUAAGCUUGAUGGUGUUGACCAGCUCAAUAACAUUCUACUUAUUGGAAUGACCAAUCGUAUGGAUAUGAUUGAUGACGCGCUUCUCAGACCCGGACGUUUAGAAGUUCACAUGGAAAUUUCCCUGCCAGAUGAAGCUGGCAGAGCACAAAUUCUUAAGAUUCAUACGUCCAAGAUGUUAAAGAAUGAUGUCAUGGAUACAGAUGUCGAUGUUGCUGAACUUGCUCAUCUAACCAAGAACUUCUCGGGAGCUGAAAUUG antisense: CAAUUUCAGCUCCCGAGAAGUUCUUGGUUAGAUGAGCAAGUUCAGCAACAUCGACAUCUGUAUCCAUGACAUCAUUCUUUAACAUCUUGGACGUAUGAAUCUUAAGAAUUUGUGCUCUGCCAGCUUCAUCUGGCAGGGAAAUUUCCAUGUGAACUUCUAAACGUCCGGGUCUGAGAAGCGCGUCAUCAAUCAUAUCCAUACGAUUGGUCAUUCCAAUAAGUAGAAUGUUAUUGAGCUGGUCAACACCAUCAAGCUUAGACAACAGUUGAUUGACCACACUGUCGCCAACACCAGUUCCGCCACCUGAUCCACUUCCUCUUUGUUUGCAAACGGCAUCCAAUUCGUCGAAAAUGAUGAUAUGAAGACCACUCUCGUCUCCCUUUUCCUUGUACUCCUUUUCGGCAUCGGCAAAAAGCUUUCGGAUAUUUUCUUCGGAUUGACCAACGUAUUUAUUAAGCACUUCAGGACCGUUUAUGACCUUCGGCUCUCUUGA | 33% | 34.78% | 30.52% | 12% | 7%
GS2651: dsRNA trigger targeting B. cinerea Bcsec15 (XM_024692064.1); trigger SEQ ID NO 52, RNA 56, reverse complement 60 (nucleic acid, listed as Botrytis cinerea) sense: UAUGCCUGUCAAUAGCGAAGAAGACUUUGAUAAAAUCAUUCAAGUCAGUUGGUAUGUUCCGGACAGACCGAAAGAAGAAUACACAUUCCCCGGUGUAUUACCAUUCUCCCAGAUGUACCCAAUGUGCUGUAUAGAUAUCAGAAAUUUCCUGAAUCGAUUCUACUUCAUAAUGGAUGAUCAUUUUCAACAGCCAAACAUUAUUGAUGAGACACUUAAGAAGUCGAUAGAUGAGCUUCUGUCUGAGGAUAUUU antisense: AAAUAUCCUCAGACAGAAGCUCAUCUAUCGACUUCUUAAGUGUCUCAUCAAUAAUGUUUGGCUGUUGAAAAUGAUCAUCCAUUAUGAAGUAGAAUCGAUUCAGGAAAUUUCUGAUAUCUAUACAGCACAUUGGGUACAUCUGGGAGAAUGGUAAUACACCGGGGAAUGUGUAUUCUUCUUUCGGUCUGUCCGGAACAUACCAACUGACUUGAAUGAUUUUAUCAAAGUCUUCUUCGCUAUUGACAGGCAUA | – | 9.38% | 12.74% | 21% | 54%
